Test [1] addresses Ad5 hexon capsid protein with DogTag inserted into the HVR5 loop, on Ad5 virions (Ad5-HVR5-DogTag) (human adenovirus serotype 5 (Ad5)) (UniProt P04133).
The target is the same in test [2]. This is another data set of the same source.

For two substances, coupling efficiency (% hexon coupled) and coupling efficiency (% total hexon protein coupled) results are on record in patent US20240240203A1.

Regarding “DogCatcher fused to the receptor binding domain of haemagglutinin (HA) from Influenza A (H1 A/Califo”, the coupling efficiency (% hexon coupled) in test [1] is 44%.

In the case of “DogCatcher fused to SARS CoV-2 Spike receptor binding domain (Wuhan strain, residues 319-532) (from UniProt P0DTC2 319-532)”, the coupling efficiency (% total hexon protein coupled) in test [2] was 64%.
